Experimental findings from PMC6376114, “The Y. bercovieri Anbu crystal structure sheds light on the evolution of highly (pseudo)symmetric multimers” (Journal of molecular biology, 2017) are described below.

Several values for one entry are separate records, joined by “and”; a condition that tells them apart may be missing. Equal values may be shown once.

Experiment [1] has as its target T1, YbATP-grasp (Yersinia bercovieri, UniProt A0ABP2E091).
T1 construct: gene yberc0001_40; N-terminally His-tagged (pQLinkH), E. coli ER2566 host; 780 kDa, 14-mer by sedimentation equilibrium; gene from the four-gene Anbu operon (ATP-grasp, alphaE, transglutaminase, Anbu)
T1 sequence (A0ABP2E091 1-478): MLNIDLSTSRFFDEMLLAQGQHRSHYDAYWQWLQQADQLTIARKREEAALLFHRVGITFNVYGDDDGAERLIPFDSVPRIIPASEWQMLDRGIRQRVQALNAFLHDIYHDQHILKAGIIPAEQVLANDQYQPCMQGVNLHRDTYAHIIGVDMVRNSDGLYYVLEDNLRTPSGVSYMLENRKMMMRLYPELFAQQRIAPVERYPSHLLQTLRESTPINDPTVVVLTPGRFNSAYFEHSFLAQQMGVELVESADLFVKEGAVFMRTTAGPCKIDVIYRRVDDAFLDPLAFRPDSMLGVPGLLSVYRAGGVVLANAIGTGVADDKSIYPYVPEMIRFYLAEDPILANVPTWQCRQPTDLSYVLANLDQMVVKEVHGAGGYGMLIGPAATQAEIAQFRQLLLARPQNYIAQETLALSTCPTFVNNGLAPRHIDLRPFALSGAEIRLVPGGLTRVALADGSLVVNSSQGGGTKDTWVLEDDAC
The experiment in a line: […]-orthophosphate release, thin-layer chromatography and autoradiography. The experiment is classed as biochemical. To be noted: 50 mM Tris pH 7.5, 150 mM KCl, 5 mM MgCl2, 1 mM ATP, RT; labelled compound.

The target of experiment [2] is T1, YbATP-grasp. Kind of experiment: differential scanning fluorimetry (thermofluor). To be noted: strong destabilization in presence of ATP; shift size not given. The experiment is classed as binding.
For experiment [3], the target named is ATP-grasp protein encoded in the Y. bercovieri Anbu operon, N-terminally His-tagged (Yersinia bercovieri). Kind of experiment: AUC; sedimentation equilibrium of YbATP-grasp at 4000, 7000 and 9000 rpm, buffer D in the reference sector, global fit (SEDPHAT).
Experiment [4] concerns the target Yersinia bercovieri Anbu (ancestral beta subunit), V14A/G107H variant (Yersinia bercovieri). Kind of experiment: AUC; sedimentation equilibrium of YbAnbu at 4000, 7000 and 9000 rpm, buffer B in the reference sector, global fit (SEDPHAT).
Experiment [5] has the same target. The experiment in a line: AUC; sedimentation velocity, 40,000 rpm, 20 °C, buffer D, continuous c(s) distribution model (SEDFIT).
For experiment [6] the target is unchanged. The experiment in a line: crystal structure; sitting drop vapor diffusion, 100 mM BIS-TRIS propane/HCl pH 6.7-7.1, 200 mM Na2SO4, 18% PEG 3350, 7.5% ethylene glycol; space group P21, 2.5 Å, two 14-mers in the asymmetric unit.
For experiment [7] the target is unchanged. The experiment in a line: SEC; Superose 6 30/100 column, 0.5 ml/min, buffer D (50 mM Tris pH 7.5, 300 NaCl, 1 mM EDTA); calibrated with BioRad standards, yeast 20S and EcHslV.

Turning to `Nc1ncnc2c1ncn2[C@@H]1O[C@H](COP(=O)(O)OP(=O)(O)OP(=O)(O)O)[C@@H](O)[C@H]1O` [ATP], on YbATP-grasp [1], the “32P-orthophosphate release, thin-layer chromatography and autoradiography” value is “The YbATP-grasp protein led to robust production of orthophosphate”. For the same compound, on YbATP-grasp [2], the “differential scanning fluorimetry (thermofluor)” value is on record as “indicated strong destabilization of YbATP-grasp in the presence of ATP, but not ADP”.
Compound “ATP-grasp protein encoded in the Y. bercovieri Anbu operon, N-terminally His-tagged (natural protein)” gave a stoichiometry N in experiment [3] of 14.
For “Yersinia bercovieri Anbu (ancestral beta subunit), V14A/G107H variant (natural protein)”, the stoichiometry N was 14 in experiment [4]; 12 in experiment [5]; 14 in experiment [6]; 9 and 5 and 14 in experiment [7].
